Laboratory results published in article PMC8924993.

Molecular target: integrin αIIbβ3 (human (endogenous in HEL)) (UniProt P08514)
Test: proximity ligation

Chain of talin (Q9Y490 whole entry): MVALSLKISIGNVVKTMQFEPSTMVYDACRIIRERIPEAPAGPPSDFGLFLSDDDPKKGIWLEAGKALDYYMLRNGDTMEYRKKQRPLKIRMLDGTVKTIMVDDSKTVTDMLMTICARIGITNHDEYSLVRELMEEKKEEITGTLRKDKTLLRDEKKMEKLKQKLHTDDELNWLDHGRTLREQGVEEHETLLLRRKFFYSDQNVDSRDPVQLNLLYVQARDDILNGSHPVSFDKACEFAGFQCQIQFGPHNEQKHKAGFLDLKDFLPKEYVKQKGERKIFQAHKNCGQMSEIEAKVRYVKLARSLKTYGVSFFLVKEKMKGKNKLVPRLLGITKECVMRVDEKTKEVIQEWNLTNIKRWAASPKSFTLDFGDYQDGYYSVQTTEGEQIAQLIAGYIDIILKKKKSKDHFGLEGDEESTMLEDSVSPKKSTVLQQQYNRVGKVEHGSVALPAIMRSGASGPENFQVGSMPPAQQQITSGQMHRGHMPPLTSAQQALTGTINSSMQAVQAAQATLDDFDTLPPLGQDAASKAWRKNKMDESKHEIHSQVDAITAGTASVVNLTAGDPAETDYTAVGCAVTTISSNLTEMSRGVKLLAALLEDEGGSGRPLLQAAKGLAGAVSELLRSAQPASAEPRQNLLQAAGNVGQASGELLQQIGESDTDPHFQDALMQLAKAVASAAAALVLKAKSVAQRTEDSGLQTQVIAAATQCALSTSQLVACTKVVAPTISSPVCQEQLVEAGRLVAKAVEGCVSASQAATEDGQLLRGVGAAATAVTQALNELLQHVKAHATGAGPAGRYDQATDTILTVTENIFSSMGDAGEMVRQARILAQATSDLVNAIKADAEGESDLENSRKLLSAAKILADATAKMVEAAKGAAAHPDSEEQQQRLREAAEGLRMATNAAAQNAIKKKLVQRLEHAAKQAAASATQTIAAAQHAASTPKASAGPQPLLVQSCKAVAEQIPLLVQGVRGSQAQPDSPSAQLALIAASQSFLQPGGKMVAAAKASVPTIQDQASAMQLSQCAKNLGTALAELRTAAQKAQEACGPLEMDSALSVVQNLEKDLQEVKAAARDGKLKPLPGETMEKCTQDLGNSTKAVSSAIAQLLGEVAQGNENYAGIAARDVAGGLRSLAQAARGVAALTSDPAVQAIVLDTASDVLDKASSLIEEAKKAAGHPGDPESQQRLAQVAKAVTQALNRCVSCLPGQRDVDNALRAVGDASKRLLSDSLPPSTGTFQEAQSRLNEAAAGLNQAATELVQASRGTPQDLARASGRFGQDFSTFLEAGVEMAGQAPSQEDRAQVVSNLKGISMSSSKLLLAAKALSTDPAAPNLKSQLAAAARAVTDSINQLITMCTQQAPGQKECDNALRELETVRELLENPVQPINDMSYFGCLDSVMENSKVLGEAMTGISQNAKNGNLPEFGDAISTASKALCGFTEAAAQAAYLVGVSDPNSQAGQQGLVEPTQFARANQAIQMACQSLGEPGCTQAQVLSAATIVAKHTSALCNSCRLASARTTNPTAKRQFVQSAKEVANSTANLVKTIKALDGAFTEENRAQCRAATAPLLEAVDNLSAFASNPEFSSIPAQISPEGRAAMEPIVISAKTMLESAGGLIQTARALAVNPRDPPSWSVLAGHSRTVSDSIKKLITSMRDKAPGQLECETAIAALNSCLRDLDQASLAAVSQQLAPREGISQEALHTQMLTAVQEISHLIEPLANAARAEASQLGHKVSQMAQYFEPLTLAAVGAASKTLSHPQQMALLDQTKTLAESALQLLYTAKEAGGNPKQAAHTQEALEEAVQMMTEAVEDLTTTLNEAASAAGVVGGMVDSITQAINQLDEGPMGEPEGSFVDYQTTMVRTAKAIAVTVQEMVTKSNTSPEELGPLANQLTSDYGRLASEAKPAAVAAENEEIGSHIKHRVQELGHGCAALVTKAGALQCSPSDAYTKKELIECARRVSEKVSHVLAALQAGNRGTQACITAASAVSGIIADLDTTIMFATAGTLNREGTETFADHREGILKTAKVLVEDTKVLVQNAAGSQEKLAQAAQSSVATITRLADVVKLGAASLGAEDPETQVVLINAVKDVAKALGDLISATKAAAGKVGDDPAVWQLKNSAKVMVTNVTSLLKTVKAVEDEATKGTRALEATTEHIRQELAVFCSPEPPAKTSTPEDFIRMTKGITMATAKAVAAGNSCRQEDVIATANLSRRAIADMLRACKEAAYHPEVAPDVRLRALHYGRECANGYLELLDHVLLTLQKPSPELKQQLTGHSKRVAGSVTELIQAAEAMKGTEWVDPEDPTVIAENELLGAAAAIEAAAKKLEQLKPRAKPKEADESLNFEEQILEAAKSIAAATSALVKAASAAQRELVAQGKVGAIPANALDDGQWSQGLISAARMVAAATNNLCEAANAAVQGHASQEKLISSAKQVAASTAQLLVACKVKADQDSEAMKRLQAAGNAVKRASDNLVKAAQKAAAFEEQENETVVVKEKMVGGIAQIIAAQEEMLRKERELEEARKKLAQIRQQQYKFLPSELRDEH

Substance | PLA dots/cell (with PMA; FLNa-Del1 cells) [dots/cell] | PLA dots/cell (without PMA; FLNa-Del1 cells) [dots/cell] | PLA dots/cell (no PMA; control, FLNa WT and FLNa-Del1 cells) [dots/cell] | PLA dots/cell (with 10 µM ROCK inhibitor Y-27632; FLNa WT cells, Figure 5H) [dots/cell] | PLA dots/cell (with PMA and 10 µM EHop-016; FLNa-Del1 cells) [dots/cell] | PLA dots/cell (with PMA and 10 µM Y-27632; FLNa WT cells) [dots/cell] | PLA dots/cell (with PMA and Y-27632; FLNa-Del1 cells) [dots/cell] | PLA dots/cell (with PMA, without EHop-016; FLNa-Del1 cells) [dots/cell] | PLA dots/cell (with PMA, without Y-27632; FLNa WT cells) [dots/cell] | PLA dots/cell (with PMA, without Y-27632; FLNa-Del1 cells) [dots/cell] | PLA dots/cell (with PMA; FLNa WT cells) [dots/cell] | PLA dots/cell (with PMA; FLNa-Del2 cells) [dots/cell] | PLA dots/cell (with PMA; FLNa-WT cells) [dots/cell] | PLA dots/cell (without ROCK inhibitor; FLNa WT cells, Figure 5H) [dots/cells]
FLNa-Del1, filamin A mutant lacking the N-terminal actin-binding domain (CH1-CH2) (domain or fragment) | 7.2 | 17.6 |  |  |  |  |  |  |  |  |  |  |  | 
talin (from UniProt Q9Y490 1-2541) (natural protein) | 15 | 4.6 | 5 | 17.7 | 4.4 | 10.8 | 13.2 | 20.4 | 4 | 14.9 | 8.2 | 21.2 | 7.1 | 9.1
